# Values quoted from earlier work, collected in patent US20250341526A1, “NOVEL DYES” (Quantum-Si Incorporated, priority 2024, published 2025).
# B1: PS380: ClpS amino acid recognition protein, SEQ ID NO: 13 (protein)
# chain: MGDIYGESNPEEVSCIDSLSEEGNELILFNDNIHTFEYVIDCLVAICSLSYEQASNCAYIVDRKGLCTVKHGSYDELLIMYHALVEKDLKVEIR
# B2: PS389: ClpS amino acid recognition protein, SEQ ID NO: 17 (protein)
# chain: MLNSAAFKAASASPVIAPERSGQVTQKPYPTYKVIVLNDDFNTFQHVHDCLVKYIPGMTSDRAWQLTHQVHNDGQAIVWVGPQEQAELYHQQLSRAGLTMAPIEAA
# B3: PS578: ClpS amino acid recognition protein, SEQ ID NO: 92 (protein, listed as Planctomycetes bacterium)
# chain: MSGTVVESKPRNSTQLAPRWKVIVHDDPVTTFDFVLGVLRRVFAKPPGEARRITREAHDTGSALVDVLALEQAEFRRDQAHSLARAEGFPLTLTLEPAD
# B4: PS393: ClpS amino acid recognition protein, SEQ ID NO: 21 (protein)
# chain: MSDEDGEDGDENAVGIATRTRTRTKKPTPYRVLLLNDDYTPMEFVVLVLQRFFRMSIEDATRVMLQVHQKGVGVCGVFTYEVAETKVSQVIDFARQNQHPLQCTLEKA
# B5: Thermosynechococcus elongatus ClpS: ClpS amino acid recognition protein, SEQ ID NO: 107 (protein, listed as Thermosynechococcus elongatus)
# chain: MPQERQQVTRKHYPNYKVIVLNDDFNTFQHVAACLMKYIPNMTSDRAWELTNQVHYEGQAIVWVGPQEQAELYHEQLLRAGLTMAPLEPE
# B6: Agrobacterium tumifaciens ClpS2 (atClpS2): ClpS amino acid recognition protein, SEQ ID NO: 94 (protein, listed as Agrobacterium tumifaciens)
# chain: MSDSPVDLKPKPKVKPKLERPKLYKVMLLNDDYTPREFVTVVLKAVFRMSEDTGRRVMMTAHRFGSAVVVVCERDIAETKAKEATDLGKEAGFPLMFTTEPEE
# B7: atClpS2 C72S: ClpS amino acid recognition protein, SEQ ID NO: 100 (protein)
# chain: MSDSPVDLKPKPKVKPKLERPKLYKVMLLNDDYTPREFVTVVLKAVFRMSEDTGRRVMMTAHRFGSAVVVVSERDIAETKAKEATDLGKEAGFPLMFTTEPEE
# B8: atClpS2-V1 + C72S: ClpS amino acid recognition protein, SEQ ID NO: 101 (protein)
# chain: MSDSPVDLKPKPKVKPKLERPKLYKVMLLNDDYTPMSFVTVVLKAVFRMSEDTGRRVMMTAHRFGSAVVVVSERDIAETKAKEATDLGKEAGFPLMFTTEPEE
# B9: PS390: ClpS amino acid recognition protein, SEQ ID NO: 18 (protein)
# chain: MLSIAAVTEAPSKGVQTADPKTVRKPYPNYKVIVLNDDFNTFQHVSSCLLKYIPGMSEARAWELTNQVHFEGLAVVWVGPQEQAELYYAQLKNAGLTMAPPEPA
# B10: PS368: ClpS amino acid recognition protein, SEQ ID NO: 1 (protein)
# chain: MASAPSTTLDKSTQVVKKTYPNYKVIVLNDDLNTFDHVANCLIKYIPDMTTDRAWELTNQVHYQGQAIVWTGPQEQAELYHQQLRREGLTMAPLEAA
# B11: Synechococcus elongatus ClpS2: ClpS amino acid recognition protein, SEQ ID NO: 106 (protein, listed as Synechococcus elongatus)
# chain: MSPQPDESVLSILGVPRPCVKKRSRNDAFVLTVLTCSLQAIAAPATAPGTTTTRVRQPYPHFRVIVLDDDVNTFQHVAECLLKYIPGMTGDRAWDLTNQVHYEGAATVWSGPQEQAELYHEQLRREGLTMAPLEAA
# B12: PS392: ClpS amino acid recognition protein, SEQ ID NO: 20 (protein)
# chain: MSVEIIEKRSTVRKLAPRYRVLLHNDDFNPMEYVVQTLMATVPSLTQPQAVNVMMEAHTNGMGLVIVCALEHAEFYAETLNNHGLGSSIEPDD
# B13: PS382: ClpS amino acid recognition protein, SEQ ID NO: 15 (protein)
# chain: MSDSPVIKEIKKDNIKEADEHEKKEREKETSAWKVILYNDDIHNFTYVTDVIVKVVGQISKAKAHTITVEAHSTGQALILSTWKSKAEKYCQELQQNGLTVSIIHESQLKDKQKK
# B14: Plasmodium falciparum ClpS: ClpS amino acid recognition protein, SEQ ID NO: 110 (protein, listed as Plasmodium falciparum)
# chain: MFKDLKPFFLCIILLLLLIYKCTHSYNIKNKNCPLNFMNSCVRINNVNKNTNISFPKELQKRPSLVYSQKNFNLEKIKKLRNVIKEIKKDNIKEADEHEKKEREKETSAWKVILYNDDIHNFTYVTDVIVKVVGQISKAKAHTITVEAHSTGQALILSTWKSKAEKYCQELQQNGLTVSIIHESQLKDKQKK
# B15: PS388: ClpS amino acid recognition protein, SEQ ID NO: 16 (protein)
# chain: MVTTLSADVYGMATAPTVAPERSNQVVRKTYPNYKVIVLNDDFNTFQHVAECLMKYIPGMSSDRAWDLTNQVHYEGQAIVWVGPQEPAELYHQQLRRAGLTMAPLEAA
# B16: Agrobacterium tumifaciens ClpS1 (atClpS1): ClpS amino acid recognition protein, SEQ ID NO: 93 (protein, listed as Agrobacterium tumifaciens)
# chain: MIAEPICMQGEGDGEDGGTNRGTSVITRVKPKTKRPNLYRVLLLNDDYTPMEFVIHILERFFQKDREAATRIMLHVHQHGVGECGVFTYEVAETKVSQVMDFARQHQHPLQCVMEKK
# B17: atClpS1 C7S, C84S, C112S: ClpS amino acid recognition protein, SEQ ID NO: 104 (protein)
# chain: MIAEPISMQGEGDGEDGGTNRGTSVITRVKPKTKRPNLYRVLLLNDDYTPMEFVIHILERFFQKDREAATRIMLHVHQHGVGESGVFTYEVAETKVSQVMDFARQHQHPLQSVMEKK
# B18: atClpS1 C7S: ClpS amino acid recognition protein, SEQ ID NO: 103 (protein)
# chain: MIAEPISMQGEGDGEDGGTNRGTSVITRVKPKTKRPNLYRVLLLNDDYTPMEFVIHILERFFQKDREAATRIMLHVHQHGVGECGVFTYEVAETKVSQVMDFARQHQHPLQCVMEKK
# B19: PS218: ClpS amino acid recognition protein, SEQ ID NO: 98 (protein)
# chain: MIAEPICMQGEGDGEDGGTNRGTSVITRVKPKTKRPNLYRVLLLNDDYTPFQFVIHILERFFQKDREAAWRITLHVHQHGVGECGVFTYEVAETKVSQVMDFARQHQHPLQCVMEKK
# B20: PS376: ClpS amino acid recognition protein, SEQ ID NO: 9 (protein)
# chain: MPTNDLDLLEKQDVKIERPKMYQVVMYNDDFTPFDFVVAVLMQFFNKGMDEATAIMMQVHMQGKGICGVFPKDIAETKATEVMKWAKVEQHPLRLQVEAQA
# B21: PS394: ClpS amino acid recognition protein, SEQ ID NO: 22 (protein)
# chain: MAERRDTGDDEGTGLGIATKTRSKTKKPTPYRVLMLNDDYTPMEFVVLCLQRFFRMNMEEATRVMLHVHQKGVGVCGVFSYEVAETKVGQVIDFARANQHPLQCTLEKA
# B22: Escherichia coli ClpS: ClpS amino acid recognition protein, SEQ ID NO: 108 (protein, listed as Escherichia coli)
# chain: MGKTNDWLDFDQLAEEKVRDALKPPSMYKVILVNDDYTPMEFVIDVLQKFFSYDVERATQLMLAVHYQGKAICGVFTAEVAETKVAMVNKYARENEHPLLCTLEKA
# B23: Escherichia coli ClpS M40A: ClpS amino acid recognition protein, SEQ ID NO: 109 (protein, listed as Escherichia coli)
# chain: MGKTNDWLDFDQLAEEKVRDALKPPSMYKVILVNDDYTPAEFVIDVLQKFFSYDVERATQLMLAVHYQGKAICGVFTAEVAETKVAMVNKYARENEHPLLCTLEKA
# B24: PS391: ClpS amino acid recognition protein, SEQ ID NO: 19 (protein)
# chain: MGQTVEKPRVEGPGTGLGGSWRVIVRNDDHNTFDHVARTLARFIPGVSLERGHEIAKVIHTTGRAVVYTGHKEAAEHYWQQLKGAGLTMAPLEQG
# B25: PS395: ClpS amino acid recognition protein, SEQ ID NO: 23 (protein)
# chain: MTVSQSKTQGAPAAQSATELEYEGLWRVVVLNDPVNLMSYVVLVFKKVFGFDETTARKHMLEVHEQGRSVVWSGMREKAEAYAFTLQQWHLTTVLEQDEVR
# B26: Synechococcus elongatus ClpS1: ClpS amino acid recognition protein, SEQ ID NO: 105 (protein, listed as Synechococcus elongatus)
# chain: MAVETIQKPETTTKRKIAPRYRVLLHNDDFNPMEYVVMVLMQTVPSLTQPQAVDIMMEAHTNGTGLVITCDIEPAEFYCEQLKSHGLSSSIEPDD
# Tested on: amino acid at a terminal position of a polypeptide
# Details: Table 1, ClpS proteins; amino acid at terminal position; inferred from literature and/or demonstrated by the inventors; cited from earlier work
row,Molecule,Binding Pref.
1,B1,"F, W"
2,B2,"F, Y, L"
3,B3,"I, L, V"
4,B4,"F, Y, W, L"
5,B5,"F, W, Y, L"
6,B6,"F, W, Y"
7,B7,"F, W, Y"
8,B8,"F, W, Y"
9,B9,"F, Y, L"
10,B10,"F, Y, W, L"
11,B11,"F, W, Y, L"
12,B12,"F, Y, W"
13,B13,"F, Y, W, L"
14,B14,"F, W, Y, L"
15,B15,"F, Y, L"
16,B16,"F, W, Y, L"
17,B17,"F, W, Y, L"
18,B18,"F, W, Y, L"
19,B19,"F, W, Y, L"
20,B20,"F, W, L"
21,B21,"F, Y, W, L"
22,B22,"F, W, Y, L"
23,B23,"F, W, Y, L"
24,B24,"F, Y, W, L"
25,B25,"F, Y, W, L"
26,B26,"F, W, Y"
